We go through 13 variants from IntAct's records for PubMed 17998537.

B1: Mitochondrial fission 1 protein (Saccharomyces cerevisiae), P40515 (parent)
chain: MTKVDFWPTLKDAYEPLYPQQLEILRQQVVSEGGPTATIQSRFNYAWGLIKSTDVNDERLGVKILTDIYKEAESRRRECLYYLTIGCYKLGEYSMAKRYVDTLFEHERNNKQVGALKSMVEDKIQKETLKGVVVAGGVLAGAVAVASFFLRNKRR
partner: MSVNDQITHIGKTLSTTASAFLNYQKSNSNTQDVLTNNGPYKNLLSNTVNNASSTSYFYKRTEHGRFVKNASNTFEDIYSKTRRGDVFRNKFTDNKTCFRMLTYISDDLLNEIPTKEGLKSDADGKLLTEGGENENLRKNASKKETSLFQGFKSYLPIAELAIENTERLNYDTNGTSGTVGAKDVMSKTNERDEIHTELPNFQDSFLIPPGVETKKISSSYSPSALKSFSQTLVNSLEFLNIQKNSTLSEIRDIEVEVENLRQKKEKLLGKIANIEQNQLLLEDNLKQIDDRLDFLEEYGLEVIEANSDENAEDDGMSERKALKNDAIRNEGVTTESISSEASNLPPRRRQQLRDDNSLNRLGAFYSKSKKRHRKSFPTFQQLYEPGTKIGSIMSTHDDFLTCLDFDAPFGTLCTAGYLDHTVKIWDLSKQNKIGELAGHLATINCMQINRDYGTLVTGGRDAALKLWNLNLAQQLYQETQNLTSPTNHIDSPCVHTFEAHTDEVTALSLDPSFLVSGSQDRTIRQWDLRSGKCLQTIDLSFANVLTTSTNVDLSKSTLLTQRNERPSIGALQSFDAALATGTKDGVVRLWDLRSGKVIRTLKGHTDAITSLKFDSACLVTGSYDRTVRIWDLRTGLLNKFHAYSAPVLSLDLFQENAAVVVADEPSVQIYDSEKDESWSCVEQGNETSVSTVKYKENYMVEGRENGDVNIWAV
B2: CCR4-associated factor 4 (Saccharomyces cerevisiae), P36130 (parent)
chain: MGSGDTRGESSLVAKPIEIILNKLPHAILAQQQFQKYITSPIYRYLSKLLLFREVAWPESTKDTQKGQVGIFSFQNNYADSATTFRILAHLDEQRYPLPNGAAEKNLPSLFEGFKATVSIIQQRLLLDNVDGATNSDKEKYVQLPDINTGFVNKTYSRIDLTHLLEDVETNVENLSINKTLEMDELTRLDSMINELESRKLKILERVKHIDSKSTNLENDVTLIKDRINFIEEYNLEADREQSLRKQMEEERSSEASSFTQNEEAISSLCDVESKDTRLKDFYKMPHEKSHDKNRQIISETYSRNTTAFRMTIPHGEHGNSITALDFDTPWGTLCSSSYQDRIVKVWDLNHGIQVGELPGHLATVNCMQIDKKNYNMLITGSKDATLKLWDLNLSREIYLDHSPLKEKTEEIVTPCIHNFELHKDEITALSFDSEALVSGSRDKKIFHWDLTTGKCIQQLDLIFTPTHSDIKMPARSLNNGACLLGTEAPMIGALQCYNSALATGTKDGIVRLWDLRVGKPVRLLEGHTDGITSLKFDSEKLVTGSMDNSVRIWDLRTSSILDVIAYDLPVSSLDFDGKLITVGANEGGVNVFNMERDEHWMTPEPPHSLDGDELSRRIAIVKYKDGFLINGHNDGDINVWTL
partner: B1 chain
B3: Mitochondrial division protein 1 (Saccharomyces cerevisiae), P47025 (parent)
chain: B1 partner
partner: B1 chain

In one experiment the parent is B1. As to conditions: with mdv1_yeast MDV1, P47025.
As to MTKVDFWPTLKDAYEPLYPQQLEILRQQVVSEGGPTATIQSRFNYAAGLIKSTDVNDERLGVKILTDIYKEAESRRRECLYYLTIGCYKLGEYSMAKRYVDTLFEHERNNKQVGALKSMVEDKIQKETLKGVVVAGGVLAGAVAVASFFLRNKRR [W47A], the “effect of a mutation on the interaction” value is listed as “disrupting interaction”.
Still for that read-out and setting: the same measure for MTKVDFWPTLKDAYEPLYPQQLEILRQQVVSEGGPTATIQSRAAYAWGLIKSTDVNDERLGVKILTDIYKEAESRRRECLYYLTIGCYKLGEYSMAKRYVDTLFEHERNNKQVGALKSMVEDKIQKETLKGVVVAGGVLAGAVAVASFFLRNKRR [F43A;N44A]: “disrupting interaction”.
Same read-out and setting: the same measure for MTKVDFWPTLKDAYEPLYPQQLEAARQQVVSEGGPTATIQSRFNYAWGLIKSTDVNDERLGVKILTDIYKEAESRRRECLYYLTIGCYKLGEYSMAKRYVDTLFEHERNNKQVGALKSMVEDKIQKETLKGVVVAGGVLAGAVAVASFFLRNKRR [I24A;L25A]: “disrupting interaction”.

In the next experiment the parent is B2. As to conditions: with fis1_yeast FIS1, P40515.
As to F114A, the “effect of a mutation on the interaction” value is on record as “disrupting interaction strength”.
Same read-out and setting: the same measure for L88A: “disrupting interaction strength”.
Still for that read-out and setting: for F111A the value was “disrupting interaction strength”; for F85A;R86A, “disrupting interaction strength”; for L110A, “disrupting interaction strength”.

The variants in a further experiment derive from B3. The settings on record: with fis1_yeast FIS1, P40515.
As for F99A;R100A, the “effect of a mutation on the interaction” value is reported as “disrupting interaction”.
Same read-out and setting: for F149A the value was “disrupting interaction”; for I105A, “disrupting interaction”; for F152A, “disrupting interaction”.
For L148A, the “effect of a mutation on the interaction” value was “disrupting interaction”.
